From US20260125472A1 (HEFEI TG IMMUNOPHARMA, published 2026)

Experiments:
CD3 on CD8 T cells = biological target: T1, CD3 on CD8 T cells (Homo sapiens (Human), UniProt P07766 23-207); assay: flow cytometry, CD8 T cells in PBMCs, binding ratio % [panel A]
T1 construct: Native CD3 complex on CD8 T cells among PBMCs; also called T cells (PBMCs gated with anti-human CD8 antibody)

Trop2 protein = biological target: T2, Trop2 protein (UniProt P09758 27-274); assay: ELISA, coated Trop2 protein, OD450
T2 construct: Bought recombinant protein; also called Trop2-Biotin protein (biotin-labelled, bridging ELISA)
T2 sequence (looked up): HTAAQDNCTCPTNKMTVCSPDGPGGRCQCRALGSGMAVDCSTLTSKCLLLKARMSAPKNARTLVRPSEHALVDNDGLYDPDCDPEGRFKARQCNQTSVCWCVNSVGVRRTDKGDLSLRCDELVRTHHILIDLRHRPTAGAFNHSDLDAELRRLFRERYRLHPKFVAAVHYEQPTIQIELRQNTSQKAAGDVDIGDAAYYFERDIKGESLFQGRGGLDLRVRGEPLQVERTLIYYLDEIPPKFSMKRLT
Procedure, shortened: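 Plates coated overnight at 4° C with Trop2 at 2 μg/ml, blocked with PBS/10% BSA; serially diluted bispecifics bound 1 h at 37° C. Detection by HRP anti-human Fab secondary, TMB 3 min, acid stop, OD450.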

[1] = biological target: T3, Trop2 on A-375-Trop2 melanoma cells (UniProt P09758 27-323, limits assumed); assay: flow cytometry, A-375-Trop2 cells, MFI [panel B]
T3 construct: whole, on cells
T3 sequence (looked up): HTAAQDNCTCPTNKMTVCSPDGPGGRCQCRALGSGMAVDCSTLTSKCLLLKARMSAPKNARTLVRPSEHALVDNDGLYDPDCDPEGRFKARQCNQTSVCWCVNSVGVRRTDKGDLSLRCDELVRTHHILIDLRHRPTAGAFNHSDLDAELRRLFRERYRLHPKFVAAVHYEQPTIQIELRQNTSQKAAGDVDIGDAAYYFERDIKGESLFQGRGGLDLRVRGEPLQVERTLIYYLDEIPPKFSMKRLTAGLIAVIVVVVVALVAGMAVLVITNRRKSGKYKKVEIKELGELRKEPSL
Procedure, shortened: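 Cells were blocked with goat serum at 4° C for 30 min, then incubated with serially diluted bispecific antibodies or hIgG1LALA control at 4° C for 30 min. Bound antibody was detected with Alexa-647 anti-human IgG (4° C, 30 min, dark) and read by flow cytometry.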

T1 sequence (P07766 23-207 limits assumed): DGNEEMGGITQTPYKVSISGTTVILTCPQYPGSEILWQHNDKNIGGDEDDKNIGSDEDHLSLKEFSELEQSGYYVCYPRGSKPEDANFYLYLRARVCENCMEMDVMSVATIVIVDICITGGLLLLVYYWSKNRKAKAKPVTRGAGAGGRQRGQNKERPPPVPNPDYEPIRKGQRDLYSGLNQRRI

EC50 (read off the curve) (CD3 on CD8 T cells): ~0.7 µg/mL
EC50 (read off the curve) (Trop2 protein): ~0.008 µg/mL
EC50 (read off the curve) [1]: ~1 µg/mL
B1: Cross311×Trop2 (bispecific antibody)
scFv: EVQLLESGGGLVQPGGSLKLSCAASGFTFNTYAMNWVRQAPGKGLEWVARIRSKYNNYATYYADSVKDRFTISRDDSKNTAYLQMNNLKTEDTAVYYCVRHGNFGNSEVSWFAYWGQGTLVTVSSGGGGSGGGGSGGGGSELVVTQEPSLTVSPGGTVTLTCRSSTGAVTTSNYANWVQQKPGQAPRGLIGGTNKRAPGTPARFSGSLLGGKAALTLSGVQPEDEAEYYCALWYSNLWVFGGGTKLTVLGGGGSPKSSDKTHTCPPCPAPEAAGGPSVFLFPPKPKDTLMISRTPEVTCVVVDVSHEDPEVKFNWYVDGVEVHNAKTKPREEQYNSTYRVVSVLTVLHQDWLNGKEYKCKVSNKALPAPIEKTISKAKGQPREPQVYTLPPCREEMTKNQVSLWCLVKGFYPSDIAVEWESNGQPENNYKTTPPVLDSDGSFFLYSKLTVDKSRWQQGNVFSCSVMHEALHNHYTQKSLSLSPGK
heavy: QVQLQQSGSELKKPGASVKVSCKASGYTFTNYGMNWVKQAPGQGLKWMGWINTYTGEPTYTDDFKGRFAFSLDTSVSTAYLQISSLKADDTAVYFCARGGFGSSYWYFDVWGQGSLVTVSSASTKGPSVFPLAPSSKSTSGGTAALGCLVKDYFPEPVTVSWNSGALTSGVHTFPAVLQSSGLYSLSSVVTVPSSSLGTQTYICNVNHKPSNTKVDKKVEPKSSDKTHTCPPCPAPEAAGGPSVFLFPPKPKDTLMISRTPEVTCVVVDVSHEDPEVKFNWYVDGVEVHNAKTKPREEQYNSTYRVVSVLTVLHQDWLNGKEYKCKVSNKALPAPIEKTISKAKGQPREPQVCTLPPSREEMTKNQVSLSCAVKGFYPSDIAVEWESNGQPENNYKTTPPVLDSDGSFFLVSKLTVDKSRWQQGNVFSCSVMHEALHNHYTQKSLSLSPGK
light: DIQLTQSPSSLSASVGDRVSITCKASQDVSIAVAWYQQKPGKAPKLLIYSASYRYTGVPDRFSGSGSGTDFTLTISSLQPEDFAVYYCQQHYITPLTFGAGTKVEIKRTVAAPSVFIFPPSDEQLKSGTASVVCLLNNFYPREAKVQWKVDNALQSGNSQESVTEQDSKDSTYSLSSTLTLSKADYEKHKVYACEVTHQGLSSPVTKSFNRGEC
